Data taken from PMC3515540, “Identification of Regions Involved in Substrate Binding and Dimer Stabilization within the Central Domains of Yeast Hsp40 Sis1” (PLoS ONE, 2012).

T1: full-length Ydj1 (yeast, UniProt P25491 1-409)
T1 construct: Ydj1, yeast cytosolic Type I DnaJ/Hsp40, full length; also called wild-type Ydj1; source: E. coli BL21(DE3), purified by two chromatography steps
T1 sequence (looked up): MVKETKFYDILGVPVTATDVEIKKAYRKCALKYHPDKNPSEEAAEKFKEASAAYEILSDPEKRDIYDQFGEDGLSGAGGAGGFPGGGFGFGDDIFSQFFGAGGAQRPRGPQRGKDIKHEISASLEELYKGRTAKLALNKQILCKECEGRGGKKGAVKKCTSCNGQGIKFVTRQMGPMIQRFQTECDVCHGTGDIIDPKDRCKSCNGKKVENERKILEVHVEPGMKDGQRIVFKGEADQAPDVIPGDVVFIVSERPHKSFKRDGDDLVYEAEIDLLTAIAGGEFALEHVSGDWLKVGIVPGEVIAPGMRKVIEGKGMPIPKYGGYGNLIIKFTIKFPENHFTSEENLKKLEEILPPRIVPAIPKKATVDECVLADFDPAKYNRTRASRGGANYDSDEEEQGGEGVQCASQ

B1: SYS (Sis1_(1–121)-Ydj1_(101–255)-Sis1_(258–352)) (other, yeast, UniProt P25294 1-121, looked up)
chain: MVKETKLYDLLGVSPSANEQELKKGYRKAALKYHPDKPTGDTEKFKEISEAFEILNDPQKREIYDQYGLEAARSGGPSFGPGGPGGAGGAGGFPGGAGGFSGGHAFSNEDAFNIFSQFFGGAGGAQRPRGPQRGKDIKHEISASLEELYKGRTAKLALNKQILCKECEGRGGKKGAVKKCTSCNGQGIKFVTRQMGPMIQRFQTECDVCHGTGDIIDPKDRCKSCNGKKVENERKILEVHVEPGMKDGQRIVFKGEADQAPDVIPGDVVFIVSERPHPNFKRDGDDLIYTLPLSFKESLLGFSKTIQTIDGRTLPLSRVQPVQPSQTSTYPGQGMPTPKNPSQRGNLIVKYKVDYPISLNDAQKRAIDENF
notes: Ydj1, yeast, residues 101–255 (central region); Sis1, yeast, residues 258–352 (CTDII and dimerization region); also called chimera SYS; SYS chimera; source: E. coli BL21(DE3), purified by two chromatography steps
B2: Sis1_Δ_(124–174) (natural protein, yeast, UniProt P25294 1-352, looked up)
chain: MVKETKLYDLLGVSPSANEQELKKGYRKAALKYHPDKPTGDTEKFKEISEAFEILNDPQKREIYDQYGLEAARSGGPSFGPGGPGGAGGAGGFPGGAGGFSGGHAFSNEDAFNIFSQFFGGSSTYPEEETVQVNLPVSLEDLFVGKKKSFKIGRKGPHGASEKTQIDIQLKPGWKAGTKITYKNQGDYNPQTGRRKTLQFVIQEKSHPNFKRDGDDLIYTLPLSFKESLLGFSKTIQTIDGRTLPLSRVQPVQPSQTSTYPGQGMPTPKNPSQRGNLIVKYKVDYPISLNDAQKRAIDENF
notes: source: E. coli BL21(DE3), purified by two chromatography steps
B3: Hsp70 Ssa1 (natural protein)
chain: not shown
notes: Ssa1, yeast cytosolic Hsp70; also called yeast Hsp70; source: E. coli BL21(DE3), purified by two chromatography steps (said of all recombinant proteins, 'unless otherwise noted')
B4: wild-type Sis1 (natural protein, yeast, UniProt P25294 1-352, looked up)
chain: MVKETKLYDLLGVSPSANEQELKKGYRKAALKYHPDKPTGDTEKFKEISEAFEILNDPQKREIYDQYGLEAARSGGPSFGPGGPGGAGGAGGFPGGAGGFSGGHAFSNEDAFNIFSQFFGGSSPFGGADDSGFSFSSYPSGGGAGMGGMPGGMGGMHGGMGGMPGGFRSASSSPTYPEEETVQVNLPVSLEDLFVGKKKSFKIGRKGPHGASEKTQIDIQLKPGWKAGTKITYKNQGDYNPQTGRRKTLQFVIQEKSHPNFKRDGDDLIYTLPLSFKESLLGFSKTIQTIDGRTLPLSRVQPVQPSQTSTYPGQGMPTPKNPSQRGNLIVKYKVDYPISLNDAQKRAIDENF
notes: Sis1, yeast cytosolic Type II DnaJ/Hsp40, full length wild type (residues to 352 by the SYS formula); no tag is stated; also called native Sis1; full length wild-type Sis1; source: E. coli BL21(DE3), purified by two chromatography steps
B5: Sis1_Δ_(121–257) (natural protein, yeast, UniProt P25294 1-352, looked up)
chain: MVKETKLYDLLGVSPSANEQELKKGYRKAALKYHPDKPTGDTEKFKEISEAFEILNDPQKREIYDQYGLEAARSGGPSFGPGGPGGAGGAGGFPGGAGGFSGGHAFSNEDAFNIFSQFFGHPNFKRDGDDLIYTLPLSFKESLLGFSKTIQTIDGRTLPLSRVQPVQPSQTSTYPGQGMPTPKNPSQRGNLIVKYKVDYPISLNDAQKRAIDENF
notes: as for B2

Assays:
[1] = target: the molecule itself; assay: SEC-MALLS; Superdex 200 10/300 GL, buffer A (25 mM Tris-HCl pH 7.5, 500 mM NaCl); 25 µM protein without urea, 50–75 µM with urea up to 1 M
Hsp70 Ssa1 = target: B3; assay: ELISA; Sis1, variants or Ydj1 (100 µL at 200 nM) coated on the microplate; Ssa1 (100 nM) in 50 mM phosphate pH 7.4, 150 mM NaCl, 5 mM Mg-ATP, 1 h, 25°C; bound Ssa1 detected with α-Ssa1; Sis1 set as 100%; details: both partners purified
full-length Ydj1 = target: T1, full-length Ydj1; assay: as above; details: both partners purified
[2] = target: B1; assay: as above; details: both partners purified
Sis1_Δ_(121–257) = target: B5; assay: as above; details: both partners purified

Hsp70 Ssa1, sequence (P10591 whole entry): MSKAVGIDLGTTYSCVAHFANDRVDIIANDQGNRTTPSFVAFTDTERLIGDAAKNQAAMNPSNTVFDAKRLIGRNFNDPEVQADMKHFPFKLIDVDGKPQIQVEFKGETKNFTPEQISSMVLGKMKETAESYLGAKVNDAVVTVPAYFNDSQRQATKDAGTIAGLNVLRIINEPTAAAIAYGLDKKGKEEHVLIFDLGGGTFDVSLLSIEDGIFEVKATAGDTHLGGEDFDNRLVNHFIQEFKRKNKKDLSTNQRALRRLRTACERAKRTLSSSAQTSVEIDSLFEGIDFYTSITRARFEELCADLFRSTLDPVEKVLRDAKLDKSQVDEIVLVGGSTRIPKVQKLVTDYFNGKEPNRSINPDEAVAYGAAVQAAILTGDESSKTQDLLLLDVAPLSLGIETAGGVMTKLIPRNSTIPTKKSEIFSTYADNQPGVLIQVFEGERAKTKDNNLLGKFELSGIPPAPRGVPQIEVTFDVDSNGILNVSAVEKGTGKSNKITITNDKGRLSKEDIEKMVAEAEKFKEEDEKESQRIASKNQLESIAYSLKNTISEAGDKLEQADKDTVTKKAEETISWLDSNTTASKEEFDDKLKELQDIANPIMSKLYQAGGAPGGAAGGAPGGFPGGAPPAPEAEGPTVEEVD

binding result (Hsp70 Ssa1) | percent of the binding ability of Sis1 (full-length Ydj1) | percent of the binding ability of Sis1 [2] | percent of the binding ability of Sis1 (Sis1_Δ_(121–257)) | Binder | stoichiometry N [1]
 |  |  |  | B1 | 2
binds |  |  |  | B2 | 2
 | ~30% | ~50% | ~50% | B3 | 
binds |  |  |  | B4 | 2
 |  |  |  | B5 | 2
